# In patent US20200339657A1, “PEPTIDES AND COMBINATION THEREOF FOR USE IN THE IMMUNOTHERAPY AGAINST CANCERS” (Immatics Biotechnologies GmbH, priority 2017, published 2020):
# Biological target: HLA-A*03:01 (Homo sapiens, UniProt P04439)
# Assay: MHC binding assay (UV-ligand exchange, β2m ELISA)
# Conditions: peptide exchange yield, binding to HLA-A*03:01
# Excerpt: Candidate peptides for T cell based therapies according to the present invention were further tested for their MHC binding capacity (affinity). The individual peptide-MHC complexes were produced by UV-ligand exchange, where a UV-sensitive peptide is cleaved upon UV-irradiation, and exchanged with the peptide of interest as analyzed. Only peptide candidates that can effectively bind and stabilize the peptide-receptive MHC molecules prevent dissociation of the MHC complexes. To determine the yield of the exchange reaction, an ELISA was performed based on the detection of the light chain (β2m) of stabilized MHC complexes. The assay was performed as generally described in Rodenko et al. (Rodenko et al., 2006).
# 96 well MAXISorp plates (NUNC) were coated over night with 2 ug/ml streptavidin in PBS at room temperature, washed 4× and blocked for 1 h at 37° C. in 2% BSA containing blocking buffer. Refolded HLA-A*02:01/MLA-001 monomers served as standards, covering the range of 15-500 ng/ml. Peptide-MHC monomers of the UV-exchange reaction were diluted 100-fold in blocking buffer. Samples were incubated for 1 h at 37° C., washed four times, incubated with 2 ug/ml HRP conjugated anti-β2m for 1 h at 37° C., washed again and detected with TMB solution that is stopped with […]. Absorption was measured at 450 nm. Candidate peptides that show a high exchange yield (preferably higher than 50%, most preferred higher than 75%) are generally preferred for a generation and production of antibodies or fragments thereof, and/or T cell receptors or fragments thereof, as they show sufficient avidity to the MHC molecules and prevent dissociation of the MHC complexes.
row,Peptide exchange,Substance
1,“++” (>20% = ++),93 (ALDKPGKSK; listed as Homo sapiens) [compound 93]
2,“+++” (>50 = +++),95 (RLFESSFHY; listed as Homo sapiens) [compound 95]
3,“++” (>20% = ++),96 (FSLAGALNAGFK; listed as Homo sapiens) [compound 96]
4,“++” (>20% = ++),97 (RMPPPLPTR; listed as Homo sapiens) [compound 97]
5,“++” (>20% = ++),98 (KLYPTYSTK; listed as Homo sapiens) [compound 98]
6,“+++” (>50 = +++),99 (ATMQSKLIQK; listed as Homo sapiens) [compound 99]
7,“++” (>20% = ++),100 (ALLGVIIAK; listed as Homo sapiens) [compound 100]
8,“++” (>20% = ++),101 (GVIIAKKYFFK; listed as Homo sapiens) [compound 101]
9,“++” (>20% = ++),102 (IIAKKYFFK; listed as Homo sapiens) [compound 102]
10,“++” (>20% = ++),104 (STQDTLLIK; listed as Homo sapiens) [compound 104]
11,“++” (>20% = ++),106 (RLSPNDQYK; listed as Homo sapiens) [compound 106]
12,“++” (>20% = ++),109 (KIIAPLVTR; listed as Homo sapiens) [compound 109]
13,“++” (>20% = ++),111 (KIKEHVRSK; listed as Homo sapiens) [compound 111]
14,“+++” (>50 = +++),112 (KMMADYGIRK; listed as Homo sapiens) [compound 112]
15,“+++” (>50 = +++),252 (RIYNGIGVSR; listed as Homo sapiens) [compound 252]
16,“+++” (>50 = +++),253 (KLFGTSGQK; listed as Homo sapiens) [compound 253]
17,“++” (>20% = ++),254 (AVATKFVNK; listed as Homo sapiens) [compound 254]
